± gives the standard deviation of the averaged measurements.
System: Saccharomyces cerevisiae
Assay: protein stability index of tFT-peptide fusion (C-terminal peptide) (PSI (0-1 scale)); higher = more stable (slower turnover)
Details: genetic background: wild type; temperature: 30 C
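Further: PSI is a weighted mean of sequencing reads over stability bins, variants kept only with over 10 reads, mCherry proximal and sfGFP distal, peptide attached via GGGS linker.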

Sequence | protein stability index
SSHHYSCPLVDT | 0.667 ± 0.058
SFFPPFHLLFSY | 0.532 ± 0.025
DDFPNKHVEPKA | 0.658 ± 0.014
RKGNHAHEPSCI | 0.686 ± 0.0034
SVQIKKIRRKNN | 0.6227 ± 0.0037
RLLPPSPPPPPS | 0.667 ± 0.035
PPSLPRFTPRPA | 0.718 ± 0.036
HRAFAAGFGVWG | 0.669 ± 0.067
LLSVFPLHPGSP | 0.73 ± 0.047
RVSPGGLCALSV | 0.701 ± 0.051
PPSPLLVTLPPA | 0.704 ± 0.022
QTRYAPCQRAPT | 0.645 ± 0.08
PLLPSPPHSPTP | 0.657 ± 0.045
DVYLVGLGVWSS | 0.668 ± 0.035
VPPLVSSSSLLL | 0.636 ± 0.082
LVSLSPCPSSPL | 0.671 ± 0.014
GCRLVEGAVRLE | 0.686 ± 0.048
SWPIWGSCGWRR | 0.739 ± 0.11
NVMVRIGKGGVD | 0.6664 ± 0.0041
KRTKKKKKMELE | 0.719 ± 0.013
PPPQSFLPRPPH | 0.713 ± 0.0062
ARTRRPTPGRPI | 0.719 ± 0.066
PPSPEPGSPHRF | 0.734 ± 0.018
LHLVRLEGEECL | 0.677 ± 0.027
PPFTPLPPSVPP | 0.686 ± 0.03

Sequence | protein stability index
CGGSLGAPVLVG | 0.588 ± 0.042
RGVRGLWGGKRG | 0.626 ± 0.015
GGLVWEESAGVR | 0.7091 ± 0.0016
NSVHVRGRFITK | 0.678 ± 0.023
RWGGRTASVPCG | 0.754 ± 0.015
VSTRVAVESPLG | 0.656 ± 0.03
PLPAISPPPTLP | 0.758 ± 0.036
HCPIPWASLNCL | 0.665 ± 0.0082
KKNKKKNRTKIE | 0.657 ± 0.022
GGGGGGGLGGAF | 0.717 ± 0.026
SYPLSRPCSPCD | 0.677 ± 0.068
KIKKKRKQKGKQ | 0.722 ± 0.046
HCFWVVTGGSWF | 0.691 ± 0.06
LSPPPPLALTPS | 0.709 ± 0.021
NLCTPRFATDFG | 0.629 ± 0.028
SLIPLRLTLTRH | 0.739 ± 0.023
RGPVSQNPEINF | 0.732 ± 0.02
CCRANWDFPIPS | 0.707 ± 0.027
ISVAHIPPVYHS | 0.643 ± 0.038
ADTIKRTKRSYP | 0.643 ± 0.1
SGSSIAVLPTPC | 0.747 ± 0.11
GSLFLRQHTLLR | 0.645 ± 0.0077
LLCHLSPSSSPI | 0.786 ± 0.068
VRWGLLLSCLRS | 0.666 ± 0.03
HSSLPQPRELRT | 0.674 ± 0.021

Sequence | protein stability index
FWGVAPSDRVSK | 0.697 ± 0.0078
PPGCPCPASTGS | 0.6916 ± 0.004
YPLPPPRPPCLP | 0.664 ± 0.063
PPPFLTPPPPHS | 0.709 ± 0.026
IVRTDTKPYEQS | 0.587 ± 0.013
TRRGDRVGVGSA | 0.589 ± 0.072
PLPSQYANPMIL | 0.664 ± 0.0051
KGREKTKKKGTK | 0.688 ± 0.011
SPPSPSTPPARP | 0.747 ± 0.15
LTSPPRPAFVRV | 0.636 ± 0.035
QKKKKKNKNDQK | 0.686 ± 0.056
KIKINKRIQNKK | 0.682 ± 0.036
PDPPPRCRFLPL | 0.698 ± 0.044
PSPALPSLSTPL | 0.669 ± 0.047
PPPGPDGVASNF | 0.685 ± 0.053
IAVSWIRGGRIM | 0.849 ± 0.13
CYVGALQKCGTR | 0.674 ± 0.01
PRGYRGNCAYDV | 0.636 ± 0.083
PLPSPPSPPPPP | 0.693 ± 0.0091
ELPECEHLTSLT | 0.691 ± 0.068
PPSLSPFSACLS | 0.669 ± 0.064
VLLGCRRAWVGF | 0.669 ± 0.018
RVIPRTRISLLS | 0.575 ± 0.0075
KRITRKRIKRRR | 0.7772 ± 0.0015
LRRPVDPSHIPI | 0.663 ± 0.07

Sequence | protein stability index
SPPPSPPPPLPP | 0.5649 ± 0.0049
GSGGGEVCGCGG | 0.681 ± 0.048
LAPTPLAPSPPP | 0.728 ± 0.055
TLRVNAMFVEAM | 0.63 ± 0.014
RSSDRGDVRATC | 0.689 ± 0.062
LGVGGGGRGVRG | 0.728 ± 0.12
GSLWGAFFRGLL | 0.688 ± 0.04
VGCRVVPGAGEV | 0.666 ± 0.016
GGIVGVSWLVRS | 0.657 ± 0.03
SGASPSPPRTLS | 0.7493 ± 0.0017
PDVPLASPSPFR | 0.625 ± 0.023
PPPRTPPDNHPN | 0.7256 ± 0.0047
ETLEKYGDPMRD | 0.624 ± 0.0088
PANLLHPSDPPP | 0.612 ± 0.0064
GGGRRRVAGREL | 0.701 ± 0.048
PPPRPPSPPSFL | 0.734 ± 0.041
LGNFENDEGSQK | 0.735 ± 0.026
RSTGGHGSQAGR | 0.711 ± 0.04
RGGGVVRGCSGG | 0.679 ± 0.014
PRLAPLTLLPPS | 0.7051 ± 0.0027
RQFVTACPLWRH | 0.676 ± 0.046
QVASVTSLLPYS | 0.75 ± 0.032
KKITKPKSQRLV | 0.669 ± 0.014
YGGRGFKGYYGG | 0.776 ± 0.02
FTPLFSPVLLLP | 0.72 ± 0.12

Sequence | protein stability index
FWEIRSGSNHRH | 0.713 ± 0.028
PPPPPPLPPPLP | 0.704 ± 0.056
KGCRYVGARHEG | 0.698 ± 0.017
WGVGVGGRMRPH | 0.707 ± 0.044
PCPVLPLPPFYL | 0.728 ± 0.0074
CGFLFPCSPSSK | 0.689 ± 0.068
RVTNLQSRHTLH | 0.692 ± 0.023
RNRNDRIKKLKR | 0.667 ± 0.014
DGGGGGGAPRVR | 0.715 ± 0.11
GRCLWGRVGSVM | 0.707 ± 0.018
ASQTTKAKNTGH | 0.6688 ± 0.006
SPSPLPTTPPTC | 0.641 ± 0.0077
LFRPTPPSFAPP | 0.683 ± 0.048
GGLGVYQWVDSV | 0.663 ± 0.02
TAPPSISYVQAF | 0.639 ± 0.021
SLLLMLPFPLPG | 0.618 ± 0.028
RTPAPENPPTSP | 0.609 ± 0.06
LSYGQKARIKRE | 0.703 ± 0.075
KKQQTIKKKKKR | 0.7014 ± 0.003
PSSPPSLSPPLP | 0.7177 ± 0.0034
RGFLHVRCRDTC | 0.7049 ± 0.0011
WADLIPDSFGDM | 0.741 ± 0.059
GLCGVCVLKFPR | 0.759 ± 0.15
GLGLVSWEAGGG | 0.702 ± 0.017
RTQYEVGVGTGG | 0.692 ± 0.021

Sequence | protein stability index
GRCPPPSPPHPL | 0.68 ± 0.038
RCTLFGMDQSSA | 0.642 ± 0.027
SCPHPAPPPPPP | 0.677 ± 0.023
SRCRASMPPLRA | 0.684 ± 0.034
PGLPCRNRMPFR | 0.687 ± 0.0078
VSLVVGTGEWGA | 0.762 ± 0.17
RAFGQGMGLAFS | 0.737 ± 0.0082
NPARPRPPPRER | 0.595 ± 0.057
SIPSPLVPPLTR | 0.72 ± 0.04
PQSCNILRGLES | 0.708 ± 0.056
PPPRPPASLPSL | 0.5833 ± 0.0033
PSPAALLPPPPP | 0.643 ± 0.014
MSGKIMVLQKEE | 0.643 ± 0.013
AANRCSVLPLGF | 0.601 ± 0.041
GNDRRKNNICEI | 0.701 ± 0.034
GGVSGQLLRSHG | 0.682 ± 0.0027
MGGRAEGWVPVP | 0.68 ± 0.15
PSPPYLIPHALS | 0.676 ± 0.041
SASPPLAERRGQ | 0.655 ± 0.043
KSEGKKHIDKKR | 0.63 ± 0.034
PYHARPDRSLSG | 0.693 ± 0.035

Source: the supplement of paper PMC10724198
